{
  "source": "paper PMC4167695",
  "about": "“Activation of c-Myc and Cyclin D1 by JCV T-Antigen and β-Catenin in Colon Cancer” (PLoS ONE, 2014)",
  "binders": {"B1": {"name": "JCV T-Antigen (natural protein)", "chain": "MDKVLNREESMELMDLLGLDRSAWGNIPVMRKAYLKKCKELHPDKGGDEDKMKRMNFLYKKMEQGVKVAHQPDFGTWNSSEVPTYGTDEWESWWNTFNEKWDEDLFCHEEMFASDDENTGSQHSTPPKKKKKVEDPKDFPVDLHAFLSQAVFSNRTVASFAVYTTKEKAQILYKKLMEKYSVTFISRHGFGGHNILFFLTPHRHRVSAINNYCQKLCTFSFLICKGVNKEYLFYSALCRQPYAVVEESIQGGLKEHDFNPEEPEETKQVSWKLVTQYALETKCEDVFLLMGMYLDFQENPQQCKKCEKKDQPNHFNHHEKHYYNAQIFADSKNQKSICQQAVDTVAAKQRVDSIHMTREEMLVERFNFLLDKMDLIFGAHGNAVLEQYMAGVAWIHCLLPQMDTVIYDFLKCIVLNIPKKRYWLFKGPIDSGKTTLAAALLDLCGGKSLNVNMPLERLNFELGVGIDQFMVVFEDVKGTGAESRDLPSGHGISNLDCLRDYLDGSVKVNLERKHQNKRTQVFPPGIVTMNEYSVPRTLQARFVRQIDFRPKAYLRKSLSCSEYLLEKRILQSGMTLLLLLIWFRPVADFAAAIHERIVQWKERLDLEISMYTFSTMKANVGMGRPILDFPREEDSEAEDSGHGSSTESQSQCFSQVSEASGADTQENCTFHICKGFQCFKKPKTPPPK"}},
  "biological_target": "T1, β-catenin (human (endogenous in HCT116), UniProt P35222 1-781)",
  "T1 sequence (looked up)": "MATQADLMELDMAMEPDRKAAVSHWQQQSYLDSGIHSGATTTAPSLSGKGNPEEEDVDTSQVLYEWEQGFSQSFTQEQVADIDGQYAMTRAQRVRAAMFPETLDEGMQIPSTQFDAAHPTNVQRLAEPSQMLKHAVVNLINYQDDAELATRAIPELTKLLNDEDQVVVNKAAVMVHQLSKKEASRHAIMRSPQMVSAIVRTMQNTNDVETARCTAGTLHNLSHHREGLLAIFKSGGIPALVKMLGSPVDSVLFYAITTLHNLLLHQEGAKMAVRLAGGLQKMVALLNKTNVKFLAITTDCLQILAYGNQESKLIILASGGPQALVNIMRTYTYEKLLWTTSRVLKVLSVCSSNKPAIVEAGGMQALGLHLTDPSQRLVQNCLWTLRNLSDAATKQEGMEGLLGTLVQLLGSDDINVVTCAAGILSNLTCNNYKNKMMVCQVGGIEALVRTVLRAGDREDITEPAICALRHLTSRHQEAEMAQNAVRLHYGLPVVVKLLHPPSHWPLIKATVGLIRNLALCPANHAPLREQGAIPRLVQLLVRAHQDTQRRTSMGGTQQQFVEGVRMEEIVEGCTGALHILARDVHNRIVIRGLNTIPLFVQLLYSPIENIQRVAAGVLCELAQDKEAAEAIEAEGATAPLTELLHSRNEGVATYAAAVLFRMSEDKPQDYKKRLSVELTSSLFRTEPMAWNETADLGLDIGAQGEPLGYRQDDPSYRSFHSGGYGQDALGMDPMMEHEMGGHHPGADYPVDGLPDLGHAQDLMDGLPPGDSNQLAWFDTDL",
  "experiment": "cell-based or functional assay",
  "data": [
    {"binder": "B1", "values": [
      {"measurement": "Cyclin D1 promoter luciferase activity in HCT116 cells co-transfected with T-Antigen and β-catenin, over empty vector controls", "result": 11.7, "unit": "fold"},
      {"measurement": "TOPflash (TCF-dependent luciferase reporter) activity in HCT116 cells co-transfected with T-Antigen and exogenous β-catenin, 24 hours post-transfection, normalized to FOPflash", "result": 113, "unit": "fold"},
      {"measurement": "c-Myc promoter luciferase activity in HCT116 cells co-transfected with T-Antigen and β-catenin, over empty vector controls", "result": 6.1, "unit": "fold"}
    ]}
  ]
}
